Source: PMC8417293, “Impact of crowded environments on binding between protein and single-stranded DNA”

What was measured:
Settings in all cases: protein: recombinant; single strand
[1] = biological target: T1, BsCspB (cold shock protein B) (UniProt P32081 1-67); test: intrinsic Trp fluorescence quenching; dilute; 20 mM disodium phosphate pH 7.0, no added salt stated; fluorescence titration 298 K (0.5, 2.8 or 4 uM protein; table marks a/b not explained in the material); stopped-flow 288 K (60 or 300 nM protein); NMR 298 or 294.4 K with 5% D2O
[2] = biological target: T1, BsCspB (cold shock protein B); test: intrinsic Trp fluorescence quenching; 300 g/L PEG1; 20 mM disodium phosphate pH 7.0, no added salt stated; fluorescence titration 298 K (0.5, 2.8 or 4 uM protein; table marks a/b not explained in the material); stopped-flow 288 K (60 or 300 nM protein); NMR 298 or 294.4 K with 5% D2O
[3] = biological target: T1, BsCspB (cold shock protein B); test: intrinsic Trp fluorescence quenching; 300 g/L Dex20 (series a); 20 mM disodium phosphate pH 7.0, no added salt stated; fluorescence titration 298 K (0.5, 2.8 or 4 uM protein; table marks a/b not explained in the material); stopped-flow 288 K (60 or 300 nM protein); NMR 298 or 294.4 K with 5% D2O
[4] = biological target: T1, BsCspB (cold shock protein B); test: intrinsic Trp fluorescence quenching; 300 g/L Dex20 (series b); 20 mM disodium phosphate pH 7.0, no added salt stated; fluorescence titration 298 K (0.5, 2.8 or 4 uM protein; table marks a/b not explained in the material); stopped-flow 288 K (60 or 300 nM protein); NMR 298 or 294.4 K with 5% D2O
[5] = biological target: T1, BsCspB (cold shock protein B); test: intrinsic Trp fluorescence quenching; dilute (series a); 20 mM disodium phosphate pH 7.0, no added salt stated; fluorescence titration 298 K (0.5, 2.8 or 4 uM protein; table marks a/b not explained in the material); stopped-flow 288 K (60 or 300 nM protein); NMR 298 or 294.4 K with 5% D2O
[6] = biological target: T1, BsCspB (cold shock protein B); test: intrinsic Trp fluorescence quenching; 200 g/L PEG8; 20 mM disodium phosphate pH 7.0, no added salt stated; fluorescence titration 298 K (0.5, 2.8 or 4 uM protein; table marks a/b not explained in the material); stopped-flow 288 K (60 or 300 nM protein); NMR 298 or 294.4 K with 5% D2O
[7] = biological target: T1, BsCspB (cold shock protein B); test: intrinsic Trp fluorescence quenching; 100 g/L PEG8; 20 mM disodium phosphate pH 7.0, no added salt stated; fluorescence titration 298 K (0.5, 2.8 or 4 uM protein; table marks a/b not explained in the material); stopped-flow 288 K (60 or 300 nM protein); NMR 298 or 294.4 K with 5% D2O
[8] = biological target: T1, BsCspB (cold shock protein B); test: intrinsic Trp fluorescence quenching; 300 g/L PEG1 (series a); 20 mM disodium phosphate pH 7.0, no added salt stated; fluorescence titration 298 K (0.5, 2.8 or 4 uM protein; table marks a/b not explained in the material); stopped-flow 288 K (60 or 300 nM protein); NMR 298 or 294.4 K with 5% D2O
[9] = biological target: T1, BsCspB (cold shock protein B); test: intrinsic Trp fluorescence quenching; 200 g/L PEG1; 20 mM disodium phosphate pH 7.0, no added salt stated; fluorescence titration 298 K (0.5, 2.8 or 4 uM protein; table marks a/b not explained in the material); stopped-flow 288 K (60 or 300 nM protein); NMR 298 or 294.4 K with 5% D2O
[10] = biological target: T1, BsCspB (cold shock protein B); test: intrinsic Trp fluorescence quenching; 100 g/L PEG1 (series b); 20 mM disodium phosphate pH 7.0, no added salt stated; fluorescence titration 298 K (0.5, 2.8 or 4 uM protein; table marks a/b not explained in the material); stopped-flow 288 K (60 or 300 nM protein); NMR 298 or 294.4 K with 5% D2O
[11] = biological target: T1, BsCspB (cold shock protein B); test: intrinsic Trp fluorescence quenching; 300 g/L ethylene glycol; 20 mM disodium phosphate pH 7.0, no added salt stated; fluorescence titration 298 K (0.5, 2.8 or 4 uM protein; table marks a/b not explained in the material); stopped-flow 288 K (60 or 300 nM protein); NMR 298 or 294.4 K with 5% D2O
[12] = biological target: T1, BsCspB (cold shock protein B); test: intrinsic Trp fluorescence quenching; 200 g/L Dex20 (series b); 20 mM disodium phosphate pH 7.0, no added salt stated; fluorescence titration 298 K (0.5, 2.8 or 4 uM protein; table marks a/b not explained in the material); stopped-flow 288 K (60 or 300 nM protein); NMR 298 or 294.4 K with 5% D2O
[13] = biological target: T1, BsCspB (cold shock protein B); test: intrinsic Trp fluorescence quenching; 100 g/L Dex20 (series b); 20 mM disodium phosphate pH 7.0, no added salt stated; fluorescence titration 298 K (0.5, 2.8 or 4 uM protein; table marks a/b not explained in the material); stopped-flow 288 K (60 or 300 nM protein); NMR 298 or 294.4 K with 5% D2O
[14] = biological target: T1, BsCspB (cold shock protein B); test: intrinsic Trp fluorescence quenching; 300 g/L glucose; 20 mM disodium phosphate pH 7.0, no added salt stated; fluorescence titration 298 K (0.5, 2.8 or 4 uM protein; table marks a/b not explained in the material); stopped-flow 288 K (60 or 300 nM protein); NMR 298 or 294.4 K with 5% D2O
[15] = biological target: T1, BsCspB (cold shock protein B); test: intrinsic Trp fluorescence quenching; dilute (series b); 20 mM disodium phosphate pH 7.0, no added salt stated; fluorescence titration 298 K (0.5, 2.8 or 4 uM protein; table marks a/b not explained in the material); stopped-flow 288 K (60 or 300 nM protein); NMR 298 or 294.4 K with 5% D2O

T1 sequence (P32081 whole entry): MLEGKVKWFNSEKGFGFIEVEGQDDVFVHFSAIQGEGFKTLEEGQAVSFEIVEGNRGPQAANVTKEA

Binder	Kd [1]	Kd [2]	Kd [3]	Kd [4]	Kd [5]	Kd [6]	Kd [7]	Kd [8]	Kd [9]	Kd [10]	Kd [11]	Kd [12]	Kd [13]	Kd [14]	Kd [15]
TTTT (ssDNA) [dT4]	6100 ± 300 nM	17000 ± 1100 nM													
TTTTTTT (ssDNA) [dT7]	15 ± 5 nM	570 ± 30 nM	5 ± 3 nM	6 ± 3 nM	7 ± 3 nM	90 ± 20 nM	14 ± 7 nM	170 ± 5 nM	75 ± 15 nM	10 ± 10 nM					
TTTTT (ssDNA) [dT5]	750 ± 50 nM	3800 ± 100 nM		350 ± 50 nM							5100 ± 400 nM	680 ± 20 nM	710 ± 20 nM	1310 ± 20 nM	780 ± 10 nM
TTTTTT (ssDNA) [dT6]	80 ± 10 nM	580 ± 10 nM			30 ± 10 nM			415 ± 5 nM							
